# Experimental data published in the Immune Epitope Database (IEDB).
# Experiments:
# Experiment in all cases: IEDB peptide-MHC binding, purified MHC/competitive/radioactivity; filed as Kd, often an IC50 or EC50 that approximates it; ≥ and ≤ were set here for values at or beyond the usual limits of such assays
# HLA-A*68:02 = molecular target: HLA-A*68:02
# HLA-A*02:02 = molecular target: HLA-A*02:02
# HLA-A*02:03 = molecular target: HLA-A*02:03
# HLA-A*02:06 = molecular target: HLA-A*02:06
# HLA-A*02:01 = molecular target: HLA-A*02:01
# HLA-A*11:01 = details: source organism: Vaccinia virus WR
# HLA-B*07:02 = details: source organism: Vaccinia virus WR
# HLA-B*35:01 = details: source organism: Vaccinia virus WR
# HLA-B*51:01 = details: source organism: Vaccinia virus WR
# HLA-B*53:01 = details: source organism: Vaccinia virus WR
# HLA-B*54:01 = details: source organism: Vaccinia virus WR
# HLA-B*18:01 = molecular target: HLA-B*18:01
# HLA-B*40:01 = molecular target: HLA-B*40:01
# HLA-B*40:02 = molecular target: HLA-B*40:02
# HLA-B*44:02 = molecular target: HLA-B*44:02
# HLA-B*44:03 = molecular target: HLA-B*44:03
# HLA-B*45:01 = molecular target: HLA-B*45:01
# HLA-A*26:01 = details: source organism: Dengue virus 3 Martinique/1243/1999
# [1] = source organism: Dengue virus 3 Martinique/1243/1999
# [2] = source organism: Trypanosoma cruzi
# [3] = source organism: Vaccinia virus WR
# [4] = source organism: Mammarenavirus guanaritoense
# [5] = source organism: SARS coronavirus Tor2
# [6] = source organism: Mammarenavirus brazilense
# [7] = source organism: Mammarenavirus lassaense
# [8] = source organism: Mammarenavirus tacaribeense
sequence,measurement,setting,value
CSAVPVHWV,Kd,HLA-A*68:02; [1],11.1 nM
RLLPSLLLLL,Kd,HLA-A*02:02; [2],0.28 nM
same,Kd,HLA-A*02:03; [2],0.915 nM
same,Kd,HLA-A*02:06; [2],0.585 nM
same,Kd,HLA-A*68:02; [2],7220 nM
STCYVFGLY,Kd,HLA-A*02:01; [3],4160 nM
same,Kd,HLA-A*02:02; [3],13400 nM
same,Kd,HLA-A*02:03; [3],≥ 10000 nM
same,Kd,HLA-A*02:06; [3],6140 nM
same,Kd,HLA-A*11:01,7.86 nM
same,Kd,HLA-A*68:02; [3],1380 nM
same,Kd,HLA-B*07:02,≥ 77500 nM
same,Kd,HLA-B*35:01,≥ 38200 nM
same,Kd,HLA-B*51:01,≥ 73300 nM
same,Kd,HLA-B*53:01,9930 nM
same,Kd,HLA-B*54:01,10700 nM
SMEAEMIQL,Kd,HLA-A*02:01; source organism: Homo sapiens,39.8 nM
same,Kd,HLA-A*02:02; source organism: Homo sapiens,70 nM
same,Kd,HLA-A*02:03; source organism: Homo sapiens,2380 nM
same,Kd,HLA-A*68:02; source organism: Homo sapiens,≥ 52500 nM
GEQVDLGPVL,Kd,HLA-B*18:01; [4],12100 nM
same,Kd,HLA-B*40:01; [4],9030 nM
same,Kd,HLA-B*40:02; [4],52.6 nM
same,Kd,HLA-B*44:02; [4],≥ 32700 nM
same,Kd,HLA-B*44:03; [4],≥ 43500 nM
same,Kd,HLA-B*45:01; [4],1900 nM
WVSGVSGNI,Kd,HLA-A*68:02; source organism: Dengue virus 4 Philippines/H241/1956,10.1 nM
RELYLNSSNV,Kd,HLA-B*18:01; [5],≥ 70500 nM
same,Kd,HLA-B*40:01; [5],184 nM
same,Kd,HLA-B*40:02; [5],19.2 nM
same,Kd,HLA-B*44:02; [5],2160 nM
same,Kd,HLA-B*44:03; [5],1070 nM
same,Kd,HLA-B*45:01; [5],95.5 nM
RELLGYCVSL,Kd,HLA-B*18:01; [6],12800 nM
same,Kd,HLA-B*40:01; [6],9820 nM
same,Kd,HLA-B*40:02; [6],5.07 nM
same,Kd,HLA-B*44:02; [6],1920 nM
same,Kd,HLA-B*44:03; [6],5060 nM
same,Kd,HLA-B*45:01; [6],4850 nM
SEAQMSIQLI,Kd,HLA-B*18:01; [7],13900 nM
same,Kd,HLA-B*40:01; [7],1800 nM
same,Kd,HLA-B*40:02; [7],936 nM
same,Kd,HLA-B*44:02; [7],30.4 nM
same,Kd,HLA-B*44:03; [7],235 nM
same,Kd,HLA-B*45:01; [7],997 nM
NEYTGNYQCG,Kd,HLA-B*18:01; [5],≥ 33400 nM
same,Kd,HLA-B*40:01; [5],≥ 69600 nM
same,Kd,HLA-B*40:02; [5],≥ 28500 nM
same,Kd,HLA-B*44:02; [5],≥ 70200 nM
same,Kd,HLA-B*44:03; [5],7520 nM
same,Kd,HLA-B*45:01; [5],1790 nM
ETYQLWTAL,Kd,HLA-A*26:01,181 nM
same,Kd,HLA-A*68:02; [1],3.39 nM
DVSRPTTVV,Kd,HLA-A*02:01; [2],≥ 35900 nM
same,Kd,HLA-A*02:02; [2],16300 nM
same,Kd,HLA-A*02:03; [2],≥ 38100 nM
same,Kd,HLA-A*02:06; [2],12800 nM
same,Kd,HLA-A*68:02; [2],37.7 nM
EELSTLYEAL,Kd,HLA-B*18:01; [6],371 nM
same,Kd,HLA-B*40:01; [6],1260 nM
same,Kd,HLA-B*40:02; [6],121 nM
same,Kd,HLA-B*44:02; [6],1890 nM
same,Kd,HLA-B*44:03; [6],595 nM
same,Kd,HLA-B*45:01; [6],2080 nM
AEFKSRFFVM,Kd,HLA-B*18:01; [8],37.2 nM
same,Kd,HLA-B*40:01; [8],41.6 nM
same,Kd,HLA-B*40:02; [8],3.57 nM
same,Kd,HLA-B*44:02; [8],192 nM
same,Kd,HLA-B*44:03; [8],87.2 nM
same,Kd,HLA-B*45:01; [8],290 nM
